Patent US20260108608A1 (GC CELL, published 2026)

Biological target: T1, CD5 on CD5-positive tumor cell lines (CCRF-CEM, RPMI-8402_Luc / RPMI-8402-Luciferase, RPMI-8402) (human, UniProt P06127 25-495)
T1 sequence (looked up): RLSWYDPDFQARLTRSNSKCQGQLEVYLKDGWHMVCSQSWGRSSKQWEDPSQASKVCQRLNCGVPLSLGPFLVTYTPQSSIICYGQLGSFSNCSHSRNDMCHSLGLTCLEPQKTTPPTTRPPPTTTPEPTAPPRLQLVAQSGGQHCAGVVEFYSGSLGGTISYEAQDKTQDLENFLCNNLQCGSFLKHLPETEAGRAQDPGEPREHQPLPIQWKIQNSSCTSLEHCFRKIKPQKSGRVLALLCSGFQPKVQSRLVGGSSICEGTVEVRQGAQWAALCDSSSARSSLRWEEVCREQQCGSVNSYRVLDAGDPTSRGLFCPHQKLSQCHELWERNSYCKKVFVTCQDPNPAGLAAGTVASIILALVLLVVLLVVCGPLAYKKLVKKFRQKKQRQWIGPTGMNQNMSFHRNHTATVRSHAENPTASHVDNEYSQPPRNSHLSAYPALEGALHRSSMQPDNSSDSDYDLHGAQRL
Experiment: cell-based or functional assay

B1: CD5 CAR (fourth generation), chimeric antigen receptor with anti-CD5 scFv, expressed on cord blood-derived NK cells (receptor)
chain: EIQLVQSGGGLVKPGGSVRISCAASGYTFTNYGMNWVRQAPGKGLEWMGWINTHTGEPTYADSFKGRFTFSLDDSKNTAYLQINSLRAEDTAVYFCTRRGYDWYFDVWGQGTTVTVSSGGGGSGGGGSGGGGSDIQMTQSPSSLSASVGDRVTITCRASQDINSYLSWFQQKPGKAPKTLIYRANRLESGVPSRFSGSGSGTDYTLTISSLQYEDFGIYYCQQYDESPWTFGGGTKLEIKAKPTTTPAPRPPTPAPTIASQPLSLRPEACRPAAGGAVHTRGLDFACDFWVLVVVGGVLACYSLLVTVAFIIFWVRSKRSRLLHSDYMNMTPRRPGPTRKHYQPYAPPRDFAAYRSERVQPLEENVGNAARPRFERNKRVKFSRSADAPAYQQGQNQLYNELNLGRREEYDVLDKRRGRDPEMGGKPRRKNPQEGLYNELQKDKMAEAYSEIGMKGERRRGKGHDGLYQGLSTATKDTYDALHMQALPPR
  expression of CD107a and cytokines (IFN-γ and TNF-α) in NK cells co-cultured with CCRF-CEM and RPMI-8402_Luc, CD5 CAR-NK against CBNK: ≥ 2 fold
